Experimental data as given in the supplement of paper PMC10567573.

B1: NCK2 (parent)
chain: YVERKNSLKKGSLVKNLKDTLGLG
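Further: lentivirally expressed fusions sorted by FACS into six bins by GFP to DsRed ratio, PSI derived from sequencing read proportions per bin multiplied by bin number.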

Variants of: B1
Test: protein stability index of a GFP-peptide fusion (GPS, HEK-293T) (PSI 1-6); higher = more stable
Conditions: c terminus: a fixed tail appended
With YVERKCSLKKGSLVKNLKDTLGLG [N6C] the protein stability index was 1.73. YVERKFSLKKGSLVKNLKDTLGLG [N6F] showed a protein stability index of 1.58. YRERKNSLKKGSLVKNLKDTLGLG [V2R] gave a protein stability index of 3.41. YVERKNSLKKGSLKKNLKDTLGLG [V14K] gave a protein stability index of 2.25. Work on YVERKNSLKHGSLVKNLKDTLGLG [K10H] yielded a protein stability index of 1.82. With YVERKNSLTKGSLVKNLKDTLGLG [K9T] the protein stability index was 2.17. For YVERKNSLKKGSLVKNLIDTLGLG [K18I], the protein stability index was 2.84. YVERKNSLKKGSLVKNEKDTLGLG [L17E] showed a protein stability index of 2.85. For YVERKNSLKKGSLVKHLKDTLGLG [N16H], the protein stability index was 2.28. Variant YVERKNSLKRGSLVKNLKDTLGLG [K10R] has a protein stability index of 2.17. YVERKNSLKKGSLRKNLKDTLGLG [V14R] gave a protein stability index of 2.6. For YVERKNSLKKGSLVANLKDTLGLG [K15A], the protein stability index was 2.09. YVGRKNSLKKGSLVKNLKDTLGLG [E3G] showed a protein stability index of 1.41. In the case of YDERKNSLKKGSLVKNLKDTLGLG [V2D], the protein stability index is reported as 3.38. For YVERKNSLKLGSLVKNLKDTLGLG [K10L], the protein stability index was 2.17. In the case of YVERKNSLKKGSLVKNLKDCLGLG [T20C], the protein stability index is reported as 1.82. Variant YVERKNSLKEGSLVKNLKDTLGLG [K10E] has a protein stability index of 2.29. YVERKNSLMKGSLVKNLKDTLGLG [K9M] showed a protein stability index of 1.92. SVERKNSLKKGSLVKNLKDTLGLG [Y1S] showed a protein stability index of 3.3. Variant YVERKNSLEKGSLVKNLKDTLGLG [K9E] has a protein stability index of 2.59. For YVERKNSLKKVSLVKNLKDTLGLG [G11V], the protein stability index was 2.42. YVERKNSLKKGSLVKNLKDTLGLI [G24I] showed a protein stability index of 1.8. With YVERKNSLKKGSLVKNNKDTLGLG [L17N] the protein stability index was 2.77. With YVERKNPLKKGSLVKNLKDTLGLG [S7P] the protein stability index was 1.82. In the case of YVERKNSLKKGSLVKNLKWTLGLG [D19W], the protein stability index is reported as 2.35. Variant YVERKNSLKKGSLVKNLKDTLGRG [L23R] has a protein stability index of 2.89. YVETKNSLKKGSLVKNLKDTLGLG [R4T] gave a protein stability index of 1.78. With VVERKNSLKKGSLVKNLKDTLGLG [Y1V] the protein stability index was 3.41. Variant YVERKNSLLKGSLVKNLKDTLGLG [K9L] has a protein stability index of 3.07. Variant YVERKNSLIKGSLVKNLKDTLGLG [K9I] has a protein stability index of 2.51. With YVERKNSLKKGRLVKNLKDTLGLG [S12R] the protein stability index was 2.22. YVERHNSLKKGSLVKNLKDTLGLG [K5H] gave a protein stability index of 2.13. YVERKNSLKKGSLVKNLKDTLPLG [G22P] gave a protein stability index of 2.44. In the case of YVERKNSLKKGSLVKNLKDTLGLM [G24M], the protein stability index is reported as 2.09. With YVERCNSLKKGSLVKNLKDTLGLG [K5C] the protein stability index was 1.75. With YVERKNSLKKGSLVENLKDTLGLG [K15E] the protein stability index was 2.81. Work on YVERKNSLKKGSTVKNLKDTLGLG [L13T] yielded a protein stability index of 2.63. For YVERKNSLKKGSLPKNLKDTLGLG [V14P], the protein stability index was 2.3. YVERKPSLKKGSLVKNLKDTLGLG [N6P] showed a protein stability index of 2.28. YVERKNSLKKGSLVKNLKDMLGLG [T20M] showed a protein stability index of 2. YNERKNSLKKGSLVKNLKDTLGLG [V2N] gave a protein stability index of 3.59. Work on YVERKNSLKKGSVVKNLKDTLGLG [L13V] yielded a protein stability index of 2.64. With YWERKNSLKKGSLVKNLKDTLGLG [V2W] the protein stability index was 2.49. YVERKNALKKGSLVKNLKDTLGLG [S7A] gave a protein stability index of 2.29. YVERKNSLKKGSLVKNWKDTLGLG [L17W] gave a protein stability index of 1.69. Work on YVERKNSLKKGSLVKNLKPTLGLG [D19P] yielded a protein stability index of 1.95. YVERKNSLKKGSLVKNLKDDLGLG [T20D] gave a protein stability index of 2.3. In the case of YVERKNSLKKGSLVKNLDDTLGLG [K18D], the protein stability index is reported as 2.39. With YVEAKNSLKKGSLVKNLKDTLGLG [R4A] the protein stability index was 2.23. For YVERKNSKKKGSLVKNLKDTLGLG [L8K], the protein stability index was 2.47. For YVERKNSLKKGSLVKNLHDTLGLG [K18H], the protein stability index was 2.6. Work on YVERKNSLKKGSLVKNLKDTLCLG [G22C] yielded a protein stability index of 2.01. Work on YVERKNSLKKSSLVKNLKDTLGLG [G11S] yielded a protein stability index of 2.43. YVERKNSLKKGSLVKNLKDSLGLG [T20S] showed a protein stability index of 2.66. With YVERKNILKKGSLVKNLKDTLGLG [S7I] the protein stability index was 1.86. For YVERKNSGKKGSLVKNLKDTLGLG [L8G], the protein stability index was 3.27. YVERKNSLKKGSLVKNLKDTPGLG [L21P] showed a protein stability index of 2.39. YVERKNSLKKGSLVKNLKLTLGLG [D19L] showed a protein stability index of 1.4. YVERKNSLKKFSLVKNLKDTLGLG [G11F] gave a protein stability index of 2.69. For YVERKNSLKKTSLVKNLKDTLGLG [G11T], the protein stability index was 2.06. YVERKNSLKTGSLVKNLKDTLGLG [K10T] showed a protein stability index of 1.82. With YVERKNSYKKGSLVKNLKDTLGLG [L8Y] the protein stability index was 2.14. Variant YVERKNSLKKGSLVKNYKDTLGLG [L17Y] has a protein stability index of 2.73. In the case of YVERKNSLKKGSLVKNLKDTAGLG [L21A], the protein stability index is reported as 2.4. For YVERKNSLKKGSLVKNLKDTLGKG [L23K], the protein stability index was 2.71. YVERKNSLKVGSLVKNLKDTLGLG [K10V] gave a protein stability index of 2.04. With YVERKESLKKGSLVKNLKDTLGLG [N6E] the protein stability index was 2.85. YVDRKNSLKKGSLVKNLKDTLGLG [E3D] gave a protein stability index of 1.89. With YVERKNSLKKGSLVKNLKCTLGLG [D19C] the protein stability index was 2.11. YVERKNSLKKGSLVKLLKDTLGLG [N16L] showed a protein stability index of 2.14. YVERKNSLKKGSLVKNLCDTLGLG [K18C] gave a protein stability index of 2.94. For YVERKNSLGKGSLVKNLKDTLGLG [K9G], the protein stability index was 2.39. In the case of YVECKNSLKKGSLVKNLKDTLGLG [R4C], the protein stability index is reported as 1.83. YVSRKNSLKKGSLVKNLKDTLGLG [E3S] gave a protein stability index of 2.23. Work on YVERKSSLKKGSLVKNLKDTLGLG [N6S] yielded a protein stability index of 2.1. In the case of YVERKNSLKKGSLVKNLKDTLGLV [G24V], the protein stability index is reported as 1.67. In the case of YVERKNSLKMGSLVKNLKDTLGLG [K10M], the protein stability index is reported as 1.94. For YVERKNSLKKGSLVKNLKVTLGLG [D19V], the protein stability index was 1.78. YVERKNSLKKGSLVKNAKDTLGLG [L17A] showed a protein stability index of 2.62. In the case of YVERKNSLKKGSLMKNLKDTLGLG [V14M], the protein stability index is reported as 2.46. YVERKNSLKKGSLEKNLKDTLGLG [V14E] gave a protein stability index of 2.16. YVERKNSLKKGSLVKNLKDTYGLG [L21Y] gave a protein stability index of 2.41. In the case of YVERENSLKKGSLVKNLKDTLGLG [K5E], the protein stability index is reported as 2.92. YVERKNSLKKGTLVKNLKDTLGLG [S12T] gave a protein stability index of 2.01. For YVERKNSLKKGSLVKNLKDTLRLG [G22R], the protein stability index was 1.97. With YVERKNSLKKGSLVRNLKDTLGLG [K15R] the protein stability index was 1.81. For YVERKNSLKKGSLVKNLKDTHGLG [L21H], the protein stability index was 2.3. Work on YVERKNSLKKGMLVKNLKDTLGLG [S12M] yielded a protein stability index of 1.75. Variant YVERKNSLKKGHLVKNLKDTLGLG [S12H] has a protein stability index of 1.98. For YVERKNSLFKGSLVKNLKDTLGLG [K9F], the protein stability index was 3.15. YVERKNSLKKGSLVKNLKDTLGQG [L23Q] showed a protein stability index of 2.33. YVERKTSLKKGSLVKNLKDTLGLG [N6T] gave a protein stability index of 1.94. In the case of YVERKNSLKKGSLFKNLKDTLGLG [V14F], the protein stability index is reported as 1.96. For TVERKNSLKKGSLVKNLKDTLGLG [Y1T], the protein stability index was 3.65.
